Test results reported in patent EP4541815A1 (Huahui Health Ltd., dated 2023).
Changes are numbered by the printed parent chain.

Assays:
[1] = target: T1, hFcγRIIIa (V158) (recombinant, C-terminal 6xHis tag) (human, UniProt P08637 17-208); assay: Biacore SPR, antibody captured on Protein G CM5 chip, hFcγR as mobile phase, pH 7.0, 1:1 Langmuir fit
T1 construct: also called hFcyR3a V158

[2] = target: T2, hFcγRIa (recombinant, C-terminal 6xHis tag) (human, UniProt P12314 16-292); assay: as above
T2 construct: also called hFcγR1a

[3] = target: T3, hFcγRIIb (recombinant, C-terminal 6xHis tag) (human, UniProt P31994 43-217); assay: as above
T3 construct: also called hFcyR2b
T3 sequence: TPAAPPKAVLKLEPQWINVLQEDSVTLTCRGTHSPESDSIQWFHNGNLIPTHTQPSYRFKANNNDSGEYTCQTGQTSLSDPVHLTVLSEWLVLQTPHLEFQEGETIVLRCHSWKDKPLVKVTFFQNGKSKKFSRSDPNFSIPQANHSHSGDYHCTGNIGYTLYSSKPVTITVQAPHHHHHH

[4] = target: T4, hFcγRIIa (R131) (recombinant, C-terminal 6xHis tag) (human, UniProt P12318 34-217); assay: as above
T4 construct: also called hFcyR2a R131
T4 sequence: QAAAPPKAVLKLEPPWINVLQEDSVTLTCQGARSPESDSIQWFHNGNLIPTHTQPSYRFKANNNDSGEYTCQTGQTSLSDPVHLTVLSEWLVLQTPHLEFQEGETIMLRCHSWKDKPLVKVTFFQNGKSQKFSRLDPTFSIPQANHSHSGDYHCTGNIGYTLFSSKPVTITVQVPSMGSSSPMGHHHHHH

[5] = target: T5, hFcγRIIIa (F158) (recombinant, C-terminal 6xHis tag) (human, UniProt P08637 17-208); assay: as above
T5 construct: also called hFcyR3a F158

[6] = target: T6, hFcγRIIa (H131) (recombinant, C-terminal 6xHis tag) (human, UniProt P12318 34-217); assay: as above
T6 construct: also called hFcyR2a H131
T6 sequence: T4 sequence with R134H

[7] = target: T1, hFcγRIIIa (V158) (recombinant, …); assay: Biacore SPR, ratio against A14 WT
[8] = target: T2, hFcγRIa (recombinant, C-terminal 6xHis …); assay: Biacore SPR, ratio against A14 WT
[9] = target: T3, hFcγRIIb (recombinant, C-terminal 6xHis …); assay: Biacore SPR, ratio against A14 WT
[10] = target: T4, hFcγRIIa (R131) (recombinant, …); assay: Biacore SPR, ratio against A14 WT
[11] = target: T5, hFcγRIIIa (F158) (recombinant, …); assay: Biacore SPR, ratio against A14 WT
[12] = target: T6, hFcγRIIa (H131) (recombinant, …); assay: Biacore SPR, ratio against A14 WT
[13] = target: Pre-S1 domain of hepatitis B virus (L protein) on recombinant HBV D genotype virus (hepatitis B virus, D genotype); assay: cell-based or functional assay
[14] = target: FcγRIIIa F158 on Jurkat/NFAT-luc2p/FcγRIIIa F158 cells (UniProt P08637 17-254, limits assumed); assay: cell-based or functional assay
[15] = target: T7, FcγRIIa R131 on Jurkat/NFAT-luc2p/FcγRIIa R131 cells (UniProt P12318 34-317, limits assumed); assay: cell-based or functional assay
T7 sequence (looked up): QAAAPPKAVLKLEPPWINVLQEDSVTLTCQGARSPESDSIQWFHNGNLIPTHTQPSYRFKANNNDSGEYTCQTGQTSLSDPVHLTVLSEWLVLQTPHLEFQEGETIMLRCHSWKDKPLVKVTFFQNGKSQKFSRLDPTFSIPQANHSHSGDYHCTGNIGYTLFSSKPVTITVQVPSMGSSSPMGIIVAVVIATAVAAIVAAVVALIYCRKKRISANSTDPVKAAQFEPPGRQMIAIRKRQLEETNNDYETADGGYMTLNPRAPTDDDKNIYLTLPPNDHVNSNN

T2 sequence (P12314 other isoform, or with tags, fused parts or gaps): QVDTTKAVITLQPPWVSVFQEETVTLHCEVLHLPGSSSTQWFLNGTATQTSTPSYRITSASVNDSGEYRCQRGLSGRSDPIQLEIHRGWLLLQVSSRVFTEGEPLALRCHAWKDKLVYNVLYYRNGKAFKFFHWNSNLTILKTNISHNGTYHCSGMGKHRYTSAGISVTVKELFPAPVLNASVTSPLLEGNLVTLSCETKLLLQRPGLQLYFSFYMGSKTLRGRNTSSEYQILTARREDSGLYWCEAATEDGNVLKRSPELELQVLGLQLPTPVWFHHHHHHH
T1 sequence (P08637 other isoform, or with tags, fused parts or gaps): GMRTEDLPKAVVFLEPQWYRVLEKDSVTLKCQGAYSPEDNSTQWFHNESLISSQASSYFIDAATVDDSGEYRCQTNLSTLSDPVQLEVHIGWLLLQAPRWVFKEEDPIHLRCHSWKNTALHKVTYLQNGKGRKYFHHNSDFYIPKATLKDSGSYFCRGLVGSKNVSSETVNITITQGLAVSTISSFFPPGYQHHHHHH
T5 sequence (P08637 other isoform, or with tags, fused parts or gaps): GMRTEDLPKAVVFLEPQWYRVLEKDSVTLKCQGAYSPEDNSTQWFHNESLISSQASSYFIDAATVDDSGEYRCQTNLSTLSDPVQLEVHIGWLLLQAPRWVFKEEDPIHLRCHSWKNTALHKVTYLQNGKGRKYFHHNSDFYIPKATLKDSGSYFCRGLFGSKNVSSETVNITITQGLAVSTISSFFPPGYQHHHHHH

B1: afuco-A14 GA LS (antibody, human IgG1, lambda)
heavy: QVQLQQSGPGLVKPSQTLSLTCAISGDSVSSNSAAWNWIRQSPSRGLEWLGRTYYRSKWYNDYAVSVKSRITINPDTSKNQFSLQLNSVTPEDTAVYYCARGTRWGMDVWGQGTLVTVSSASTKGPSVFPLAPSSKSTSGGTAALGCLVKDYFPEPVTVSWNSGALTSGVHTFPAVLQSSGLYSLSSVVTVPSSSLGTQTYICNVNHKPSNTKVDKKVEPKSCDKTHTCPPCPAPELLAGPSVFLFPPKPKDTLMISRTPEVTCVVVDVSHEDPEVKFNWYVDGVEVHNAKTKPREEQYNSTYRVVSVLTVLHQDWLNGKEYKCKVSNKALPAPIEKTISKAKGQPREPQVYTLPPSRDELTKNQVSLTCLVKGFYPSDIAVEWESNGQPENNYKTTPPVLDSDGSFFLYSKLTVDKSRWQQGNVFSCSVLHEALHSHYTQKSLSLSPGK
light: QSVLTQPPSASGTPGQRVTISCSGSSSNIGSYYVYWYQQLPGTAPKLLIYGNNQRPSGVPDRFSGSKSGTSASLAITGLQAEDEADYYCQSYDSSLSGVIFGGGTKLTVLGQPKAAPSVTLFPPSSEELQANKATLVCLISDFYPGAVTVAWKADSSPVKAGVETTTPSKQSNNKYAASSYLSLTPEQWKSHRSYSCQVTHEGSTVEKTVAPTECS
Kd [1]: 123 nM
Kd [2]: 173 nM
Kd [3]: 7470 nM
Kd [4]: 204 nM
Kd [5]: 588 nM
Kd [6]: 169 nM
Fold (KD of A14 WT over KD of afuco-A14 GA LS) [7]: 7.89 fold
Fold (KD of A14 WT over KD of afuco-A14 GA LS) [8]: 0.41 fold
Fold (KD of A14 WT over KD of afuco-A14 GA LS) [9]: 0.76 fold
Fold (KD of A14 WT over KD of afuco-A14 GA LS) [10]: 3.83 fold
Fold (KD of A14 WT over KD of afuco-A14 GA LS) [11]: 11 fold
Fold (KD of A14 WT over KD of afuco-A14 GA LS) [12]: 4.63 fold
IC50 of inhibition of HBV infection of HepG2-hNTCP cells (HBeAg secretion) [13]: ~0.011 µg/mL
ADCC activity, fold enhancement compared to A14 [14]: 18.6 fold
ADCP activity, fold enhancement compared to A14 [15]: 4.7 fold
